Data: the Human Domainome abundance scans (Beltran et al. 2025)
± gives the uncertainty stated by the source.

B1: SH3 and PX domain-containing protein 2B, residues 155 to 209; numbered along this chain, A1X283 (parent)
chain: EQYVVVANYQKQESSEISLSVGQVVDIIEKNESGWWFVSTAEEQGWVPATCLEGQ

Variants of: B1
Assay: abundance fitness (aPCA) (normalised: wild type 0, dead -1); higher = more abundant; growth selection in yeast, the domain comes from the species named
Conditions: Homo sapiens

Abundance fitness of substitutions, site by site:
I28: Q -0.042 ± 0.15, A -0.319 ± 0.073
W46: I -0.299 ± 0.16, A -0.599 ± 0.086, C -0.233 ± 0.3, Q -0.37 ± 0.18, G -1.08 ± 0.1, D -0.652 ± 0.2, M -0.039 ± 0.095, K -0.273 ± 0.14, E -0.91 ± 0.14, R -0.17 ± 0.083, F -0.036 ± 0.23, T -0.437 ± 0.096
G34: W -0.708 ± 0.13, E -0.147 ± 0.081, N -0.538 ± 0.22, S -0.208 ± 0.083, K -0.169 ± 0.14, Q -0.458 ± 0.2, H -0.327 ± 0.14, P -0.249 ± 0.1, Y -0.492 ± 0.16, F -0.598 ± 0.16, D -0.125 ± 0.091, M -0.216 ± 0.1, L -0.423 ± 0.078, A -0.189 ± 0.075, T -0.393 ± 0.092, I -0.579 ± 0.15, V -0.676 ± 0.11, R -0.306 ± 0.07
S33: H -0.046 ± 0.13, P -0.5 ± 0.13, V -0.212 ± 0.077, W -0.387 ± 0.12, Q 0.074 ± 0.19, I -0.393 ± 0.13, Y -0.074 ± 0.11, F -0.229 ± 0.13, E -0.002 ± 0.12, C -0.266 ± 0.14, T -0.086 ± 0.098, G -0.088 ± 0.072, D 0.095 ± 0.1, L -0.242 ± 0.094, M -0.272 ± 0.14, N -0.09 ± 0.14, K 0.058 ± 0.11
I27: A 0.037 ± 0.13, K -0.617 ± 0.21, H -0.908 ± 0.23, W -0.477 ± 0.1, P -0.008 ± 0.13, C -0.001 ± 0.093, M -0.185 ± 0.11, Q -0.609 ± 0.19, S -0.404 ± 0.085, D -1.05 ± 0.22, N -0.899 ± 0.19, G -0.351 ± 0.073, T -0.183 ± 0.092, V 0.055 ± 0.071, F -0.145 ± 0.19, E -0.944 ± 0.16, R -0.277 ± 0.058, L -0.099 ± 0.067, Y -0.149 ± 0.21
E42: I -0.387 ± 0.14, H 0.063 ± 0.37, Q 0.019 ± 0.12, S 0.07 ± 0.071, P -0.431 ± 0.097, Y -0.163 ± 0.14, G -0.037 ± 0.061, K -0.057 ± 0.12, M -0.048 ± 0.13, A -0.057 ± 0.077, D 0.086 ± 0.082, C -0.064 ± 0.092, W -0.118 ± 0.079
E29: T -0.037 ± 0.093, N 0.021 ± 0.16, K 0.022 ± 0.11, I 0.133 ± 0.17, R 0.084 ± 0.079, S -0.114 ± 0.07, L -0.123 ± 0.088, Y -0.502 ± 0.18, G -0.19 ± 0.077, A -0.056 ± 0.08, M -0.417 ± 0.12, F -0.691 ± 0.36, P -0.974 ± 0.26, W -0.097 ± 0.088, V -0.258 ± 0.073, Q 0.05 ± 0.11, D -0.104 ± 0.2, H 0.056 ± 0.28, C -0.205 ± 0.082
W35: P -0.621 ± 0.1, L -0.073 ± 0.069, R 0.045 ± 0.073, Y -0.22 ± 0.15, T -0.191 ± 0.09, D -0.182 ± 0.14, S -0.04 ± 0.066, G -0.398 ± 0.074, Q 0.04 ± 0.14, H 0.013 ± 0.12, V -0.118 ± 0.07, I -0.195 ± 0.13, A -0.172 ± 0.072, E -0.173 ± 0.1, C -0.062 ± 0.089, N -0.193 ± 0.18, F -0.005 ± 0.23, M 0.027 ± 0.085
F37: T -0.472 ± 0.15, E -0.237 ± 0.11, S -0.109 ± 0.072, A -0.174 ± 0.081, Q 0.036 ± 0.13, L 0.03 ± 0.087, D -0.347 ± 0.15, R 0.06 ± 0.07, C -0.127 ± 0.15, K 0.066 ± 0.14, M -0.069 ± 0.12, H -0.068 ± 0.12, Y 0.061 ± 0.17, I -0.181 ± 0.15
E43: W -0.31 ± 0.15, V -0.093 ± 0.073, S 0.033 ± 0.098, P -0.856 ± 0.2, G 0.041 ± 0.063, T -0.033 ± 0.12, K -0.167 ± 0.26, Q 0.065 ± 0.21, D 0.087 ± 0.25, H -0.021 ± 0.15, A -0.038 ± 0.087, N 0.017 ± 0.14, I -0.155 ± 0.14, R -0.111 ± 0.067, F -0.265 ± 0.14, Y -0.221 ± 0.16, M -0.117 ± 0.13, L -0.263 ± 0.076
V38: I -0.319 ± 0.15, H -1.13 ± 0.3, D -0.736 ± 0.14, E -0.76 ± 0.12, G -0.363 ± 0.068, F -0.915 ± 0.18, A -0.07 ± 0.068, R -0.963 ± 0.1, W -1.02 ± 0.28, K -1.03 ± 0.2, C -0.298 ± 0.16, L -0.736 ± 0.088, T -0.875 ± 0.13, N -0.895 ± 0.33, P -1.14 ± 0.27, Y -0.921 ± 0.29, Q -1.08 ± 0.22
